Data set [1] can be described thus: Fractionation of soluble and insoluble recombinant protein by cell lysis and centrifugation / SDS-PAGE. It counts as physicochemical. To be noted: T. maritima proteins expressed in E. coli; SDS-PAGE of soluble and insoluble fractions. On the procedure:
E. coli strains MG1655 (F^−lam rph1) and KY1429 (F- araD139 Δ(argF-lac)169 lam flhD5301 fruA25 relA1 rpsL150 zhh50::Tn10 rpoH606(ts) deoC1) were transformed with expression plasmids encoding M36881 (LCK) or M86400 (PLA) for expression profiling. Cells were cultured at 37° C. in Luria Broth containing ampicillin. Protein expression was induced by addition of L-arabinose to a final concentration of 0.1% for 1 hour. KY1429 cells were cultured as above except initial growth was performed at 32° C. followed by a shift to 42° C. for non-permissive expression of rpoH606. Top10 cells (F^−-mcrA Δ(mrr-hsdRMS-mcrBC) φ80lacZΔM15 ΔlacX74 deoR recA1 araD139 Δ(ara-leu)7697 galU galK rpsL endA1 nupG) containing the ibpAB promoter fusion (pHK57), were transformed with expression constructs listed above. Beta-galactosidase assays were performed essentially as described by Miller (24). Fractionation of soluble and insoluble proteins was performed by centrifugation. Cultures were resuspended in 50 mM Tris pH 7.9, 50 mM NaCl, 1 mM MgCl2, 3 mM methionine and sonicated for 2 minutes on ice. Cell debris and insoluble protein aggregates were pelleted by centrifugation at 3000×g for 15 minutes. The soluble fraction was removed and the pellets resuspended in an equivalent volume of lysis buffer.

Data set [2] in a line: pI of T. maritima proteins. Format: physicochemical, Thermotoga maritima.

Drawing on patent US20040170976A1, “Solubility reporter gene constructs” (priority 2000, published 2004), this text covers pre-determined expression characteristics and pI for four molecules.

B1: TM0688: T. maritima glyceraldehyde-3-phosphate dehydrogenase (gap) (protein, UniProt P17721 2-333, looked up)
Glyceraldehyde-3-phosphate …: ARVAINGFGRIGRLVYRIIYERKNPDIEVVAINDLTDTKTLAHLLKYDSVHKKFPGKVEYTENSLIVDGKEIKVFAEPDPSKLPWKDLGVDFVIESTGVFRNREKAELHLQAGAKKVIITAPAKGEDITVVIGCNEDQLKPEHTIISCASCTTNSIAPIVKVLHEKFGIVSGMLTTVHSYTNDQRVLDLPHKDLRRARAAAVNIIPTTTGAAKAVALVVPEVKGKLDGMAIRVPTPDGSITDLTVLVEKETTVEEVNAVMKEATEGRLKGIIGYNDEPIVSSDIIGTTFSGIFDATITNVIGGKLVKVASWYDNEYGYSNRVVDTLELLLKM
B1: the pre-determined expression characteristics entry in data set [1] was “Insoluble”. The molecule further came in with a pI in data set [2] of 6.21.

B2: TM0556: T. maritima 3-isopropylmalate dehydrogenase (leuB) (protein, UniProt Q9WZ26 1-354, looked up)
3-isopropylmalate …: MKIAVLPGDGIGPEVVREALKVLEVVEKKTGKTFEKVFGHIGGDAIDRFGEPLPEETKKICLEADAIFLGSVGGPKWDDLPPEKRPEIGGLLALRKMLNLYANIRPIKVYRSLVHVSPLKEKVIGSGVDLVTVRELSYGVYYGQPRGLDEEKGFDTMIYDRKTVERIARTAFEIAKNRRKKVTSVDKANVLYSSMLWRKVVNEVAREYPDVELTHIYVDNAAMQLILKPSQFDVILTTNMFGDILSDESAALPGSLGLLPSASFGDKNLYEPAGGSAPDIAGKNIANPIAQILSLAMMLEHSFGMVEEARKIERAVELVIEEGYRTRDIAEDPEKAVSTSQMGDLICKKLEEIW
Consider B2, for which, in data set [1], the pre-determined expression characteristics result is “Soluble”. In data set [2], the pI was 5.44.

B3: TM0294: T. maritima glutamate 5-kinase (proB) (protein, UniProt Q9WYD0 1-353, looked up)
Glutamate 5-kinase: MIMKVVVKVGSNLLVGSSGLRKSYIAELCREVARLKSQGHEISIITSGARAAGFTYLGKGKRTQDLHIKQALCAVGQVQLMKVYENAFDFYGIKIAQILLTRDTFSNRKRYLNLRNTLIGLSEFDVVPIVNENDTVATEEITLGDNDTLAAMFSIAWDADFLVLFTTVDGVIDENGKLVERFDESVKLKDMGKSSWGTGGIRSKIESALMASRCGVKATICSGNDVSNLTRFVKGEPVGTVFEPQGRLKAKKAWIAFLSEPAGKIYVNKGAEEALKSGNSLLPVGVTGVEGTFDVGDVVEIVNEEGELVGRGIVNYSSSDLEKIAGHKSSDLKKILGYEGNKVVVHIDNMWVA
As for B3, the pI in data set [2] is 6.92.

B4: TM0574: T. maritima S-adenosylmethionine tRNA ribosyltransferase (queA) (protein, UniProt Q9WZ44 1-335, looked up)
S-adenosylmethionine:tRNA …: MKVSEFDYELPPELIAQEPVEPRDASRLMVLHRKTQRIEHRIFREIIEYLEPGDLLVLNVSKVIPARLYARKKTGASIEILLIERLEEGIWKCLVRPGQKVKKGTELVIDEDLSAVCLGRGEDGTRILKFQPQDDRLIFEKGRTPLPPYIKNEVPLERYQTVYAKEEGSVAAPTAGLHFTPELIEKLKKKGVQFAEVVLHVGIGTFRPVKVEEVEKHKMHEEFYQVPKETVRKLRETRERGNRIVAVGTTTVRTLETIARLPEQEEYVGKTDLFIYPPFEFKLVDALVTNFHLPRSTLLMLVAAFAGKDFVMEAYREAVKRRYRFFSFGDAMLIL
For B4, the pre-determined expression characteristics result in data set [1] is reported as “Soluble”. For the same molecule, the pI in data set [2] was 8.61.
